B1: 14-3-3 protein epsilon (Rattus norvegicus (Rat)), P62260 (parent)
chain: MDDREDLVYQAKLAEQAERYDEMVESMKKVAGMDVELTVEERNLLSVAYKNVIGARRASWRIISSIEQKEENKGGEDKLKMIREYRQMVETELKLICCDILDVLDKHLIPAANTGESKVFYYKMKGDYHRYLAEFATGNDRKEAAENSLVAYKAASDIAMTELPPTHPIRLGLALNFSVFYYEILNSPDRACRLAKAAFDDAIAELDTLSEESYKDSTLIMQLLRDNLTLWTSDMQGDGEEQNKEALQDVEDENQ
partner: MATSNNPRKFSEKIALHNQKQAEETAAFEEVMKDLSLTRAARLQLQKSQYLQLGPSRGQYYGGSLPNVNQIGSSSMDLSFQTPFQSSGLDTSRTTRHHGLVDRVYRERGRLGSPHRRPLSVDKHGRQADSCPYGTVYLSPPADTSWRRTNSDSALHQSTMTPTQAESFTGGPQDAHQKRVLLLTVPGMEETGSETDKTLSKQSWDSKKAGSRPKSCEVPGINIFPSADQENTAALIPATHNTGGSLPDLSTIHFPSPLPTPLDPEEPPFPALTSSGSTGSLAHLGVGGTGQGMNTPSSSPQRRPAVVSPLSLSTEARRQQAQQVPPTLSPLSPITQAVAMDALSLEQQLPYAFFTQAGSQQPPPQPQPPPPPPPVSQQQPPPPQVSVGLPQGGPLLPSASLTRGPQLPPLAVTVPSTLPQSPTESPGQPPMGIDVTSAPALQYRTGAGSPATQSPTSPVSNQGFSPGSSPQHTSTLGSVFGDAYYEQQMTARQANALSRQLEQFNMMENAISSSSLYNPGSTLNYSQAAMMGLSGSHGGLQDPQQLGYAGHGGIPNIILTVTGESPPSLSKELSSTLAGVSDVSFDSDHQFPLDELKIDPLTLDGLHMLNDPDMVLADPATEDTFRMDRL

Variants of: B1
Conditions: with crtc1_rat Crtc1, Q157S1

Row | effect of a mutation on the interaction | Variant
1 | decreasing interaction strength | K50E
